According to PMC3348883:

Biological target: Raf-1 (UniProt P04049)
Test: FLAG IP, GFP-Raf-1 blot
Conditions: reference: FLAG-MST2 wild type; sites Y81

binding against the reference: stronger
Substance: MST2 (from UniProt Q13188) FLAG-MST2 Y81F
